B1: imdevimab (REGN10987) (antibody, V domains shown)
VH: QVQLVESGGGVVQPGRSLRLSCAASGFTFSNYAMYWVRQAPGKGLEWVAVISYDGSNKYYADSVKGRFTISRDNSKNTLYLQMNSLRTEDTAVYYCASGSDYGDYLLVYWGQGTLVTVSS
VL: QSALTQPASVSGSPGQSITISCTGTSSDVGGYNYVSWYQQHPGKAPKLMIYDVSKRPSGVSNRFSGSKSGNTASLTISGLQSEDEADYYCNSLTSISTWVFGGGTKLTVL
B2: casirivimab (REGN10933) (antibody, V domains shown)
VH: QVQLVESGGGLVKPGGSLRLSCAASGFTFSDYYMSWIRQAPGKGLEWVSYITYSGSTIYYADSVKGRFTISRDNAKSSLYLQMNSLRAEDTAVYYCARDRGTTMVPFDYWGQGTLVTVSS
VL: DIQMTQSPSSLSASVGDRVTITCQASQDITNYLNWYQQKPGKAPKLLIYAASNLETGVPSRFSGSGSGTDFTFTISGLQPEDIATYYCQQYDNLPLTFGGGTKVEIK

Biological target: SARS-CoV-2 Delta (B.1.617.2) spike protein RBD, His-tagged (SARS-CoV-2 Delta (B.1.617.2), UniProt P0DTC2)
Assay: SPR

Row | Binder | Kd | koff | kon
1 | B1 | 0.11 nM | 0.00028 s⁻¹ | 2.6e+06 M⁻¹ s⁻¹
2 | B2 | 0.07 nM | 0.0002 s⁻¹ | 2.9e+06 M⁻¹ s⁻¹
